{"source": "patent US20240059799A1", "about": "(Pfizer, published 2024)", "binders": {"B1": {"name": "p40TL1A-0033 bispecific antibody (bispecific antibody, human IgG1, kappa)", "heavy": "EVQLVQSGAEVKKPGESLKISCKGSGYSFTTYWLGWVRQMPGKGLDWIGIMSPVDSDIRYSPSFQGQVTMSVDKSITTAYLQWNSLKASDTAMYYCARRRPGQGYFDFWGQGTLVTVSSASTKGPSVFPLAPSSKSTSGGTAALGCLVKDYFPEPVTVSWNSGALTSGVHTFPAVLQSSGLYSLSSVVTVPSSSLGTQTYICNVNHKPSNTKVDKKVEPKSCDKTHTCPPCPAPEAAGAPSVFLFPPKPKDTLMISRTPEVTCVVVDVSHEDPEVKFNWYVDGVEVHNAKTKPREEQYNSTYRVVSVLTVLHQDWLNGKEYKCKVSNKALPAPIEKTISKAKGQPREPQVCTLPPSREEMTKNQVSLWCLVKGFYPSDIAVEWESNGQPENNYKTTPPVLDSDGSFFLYSKLTVDKSRWQQGNVFSCSVLHEALHSHYTQKSLSLSPGK", "light": "not shown", "chain 1": "not shown", "chain 2": "QVQLVQSGAEVKKPGASVKVSCKASGYDYTYYGISWVRQAPGQGLEWMGWISTYNTGTHYAPSLQGRVTMTTDTSTSTAYMELRSLRSDDTAVYYCARESYYGSGAFRGGMDVWGQGTTVTVSSASTKGPSVFPLAPSSKSTSGGTAALGCLVKDYFPEPVTVSWNSGALTSGVHTFPAVLQSSGLYSLSSVVTVPSSSLGTQTYICNVNHKPSNTKVDKKVEPKSC", "notes": "Single cell KiH, modified Fd format; IgG1 effector-function-minimized Fc with LS mutations"}}, "key": {"[1]": {"biological_target": "T1, recombinant rat TL1A (rat, UniProt Q8K3Y7 76-252)", "T1 sequence": "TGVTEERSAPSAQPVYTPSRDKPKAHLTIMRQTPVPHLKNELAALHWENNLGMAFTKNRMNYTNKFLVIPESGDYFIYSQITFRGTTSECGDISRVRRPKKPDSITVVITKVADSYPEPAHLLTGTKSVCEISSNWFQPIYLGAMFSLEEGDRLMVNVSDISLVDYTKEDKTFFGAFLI", "assay": "SPR, Biacore T200, 37 C; biotinylated TL1A captured on Biotin CAPture chip, antibody injected", "method": "(§1) In order to determine binding to TL1A, kinetic assays were conducted at 37° C. using a collection rate of 10 Hz on a Biacore™ T200 instrument (GE Healthcare). […] For the analysis of the p40 binding arm, kinetic assays were conducted at 37° C. using a collection rate of 10 Hz on a Biacore™ 8 K+ instrument (GE Healthcare)."}, "[2]": {"biological_target": "T2, recombinant human TL1A (human, UniProt O95150 71-251)", "T2 construct": "TL1A is described as a homotrimer; Biotinylated for SPR capture; also called TNFSF15", "T2 chain": "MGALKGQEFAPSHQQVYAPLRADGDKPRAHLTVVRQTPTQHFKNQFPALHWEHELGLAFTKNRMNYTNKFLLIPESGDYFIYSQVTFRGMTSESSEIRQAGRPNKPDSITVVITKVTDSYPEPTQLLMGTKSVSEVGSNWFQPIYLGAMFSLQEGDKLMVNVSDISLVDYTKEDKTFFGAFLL", "assay": "SPR, Biacore T200, 37 C; biotinylated TL1A captured on Biotin CAPture chip, antibody injected", "method": "as §1"}, "[3]": {"biological_target": "T3, recombinant cynomolgus monkey TL1A (cynomolgus monkey, UniProt O95150 72-251 (human entry))", "T3 construct": "also called Cyno TL1A", "T3 chain": "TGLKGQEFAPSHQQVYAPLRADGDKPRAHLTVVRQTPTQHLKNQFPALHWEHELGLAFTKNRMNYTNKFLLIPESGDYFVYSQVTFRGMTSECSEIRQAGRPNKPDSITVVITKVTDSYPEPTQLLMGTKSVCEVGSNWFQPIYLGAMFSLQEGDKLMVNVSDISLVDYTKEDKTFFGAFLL", "assay": "SPR, Biacore T200, 37 C; biotinylated TL1A captured on Biotin CAPture chip, antibody injected", "method": "as §1"}, "[4]": {"biological_target": "T4, recombinant mouse TL1A (mouse, UniProt Q5UBV8 75-252)", "T4 chain": "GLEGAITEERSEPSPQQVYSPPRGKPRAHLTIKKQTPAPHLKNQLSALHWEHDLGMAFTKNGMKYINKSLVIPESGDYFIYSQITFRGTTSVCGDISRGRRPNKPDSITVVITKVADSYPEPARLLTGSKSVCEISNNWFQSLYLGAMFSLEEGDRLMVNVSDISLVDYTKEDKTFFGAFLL", "assay": "SPR, Biacore T200, 37 C; biotinylated TL1A captured on Biotin CAPture chip, antibody injected", "method": "as §1"}, "[5]": {"biological_target": "T5, human IL-23 (human, UniProt P29460 23-328; Q9NPF7 20-189)", "T5 construct": "also called recombinant human IL-23 (p40/p19)", "T5 sequence 1": "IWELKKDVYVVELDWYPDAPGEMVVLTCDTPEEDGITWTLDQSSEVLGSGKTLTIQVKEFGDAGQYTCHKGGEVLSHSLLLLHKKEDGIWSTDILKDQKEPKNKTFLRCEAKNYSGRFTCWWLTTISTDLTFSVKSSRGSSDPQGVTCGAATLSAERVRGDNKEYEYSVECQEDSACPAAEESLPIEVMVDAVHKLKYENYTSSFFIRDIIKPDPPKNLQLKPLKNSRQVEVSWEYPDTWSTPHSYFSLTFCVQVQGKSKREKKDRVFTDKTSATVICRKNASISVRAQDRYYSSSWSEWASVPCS", "T5 sequence 2": "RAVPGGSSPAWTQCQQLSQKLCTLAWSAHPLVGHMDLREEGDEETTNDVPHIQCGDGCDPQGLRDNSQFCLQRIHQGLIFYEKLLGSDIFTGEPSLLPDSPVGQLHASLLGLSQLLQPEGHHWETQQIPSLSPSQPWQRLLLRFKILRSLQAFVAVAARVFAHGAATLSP", "assay": "SPR, 37 C; antibody captured by anti-human Fc, human IL-23 injected", "method": "SPR was utilized to determine if the affinity constants of each arm of the bispecific variants binding human IL-23, containing the p40 subunit, and human TL1A were the same for each bispecific approach. For the analysis of the p40 binding arm, kinetic assays were conducted at 37° C. using a collection rate of 10 Hz on a Biacore™ 8 K+ instrument (GE Healthcare). An anti-human IgG antibody (anti-human Fc, GE Healthcare, 22-0648-88) was amine coupled to all four flow cells of a carboxymethylated dextran coated sensor chip (GE Healthcare,) using the manufacturer's recommended protocol. […] For the analysis of the TL1A binding arm, kinetic assays were conducted at 37° C. using a collection rate of 10 Hz on a Biacore™ T200 instrument (GE Healthcare).\nAs described above in EXAMPLE 12, SPR was utilized to determine if the affinity constants of each arm of the bispecific variants binding human IL-23, containing the p40 subunit, and human TL1A were the same for each bispecific variant."}, "[6]": {"biological_target": "T6, human IL-12 (human, UniProt P29460 23-328; P29459 23-219)", "T6 sequence 1": "T5 sequence 1", "T6 sequence 2": "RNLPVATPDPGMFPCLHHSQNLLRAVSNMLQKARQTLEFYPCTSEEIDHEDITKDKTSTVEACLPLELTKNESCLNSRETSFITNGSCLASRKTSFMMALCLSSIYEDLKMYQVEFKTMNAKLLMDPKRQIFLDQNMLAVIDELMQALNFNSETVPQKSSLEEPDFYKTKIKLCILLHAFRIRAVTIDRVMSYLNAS", "assay": "cell-based or functional assay"}, "[7]": {"biological_target": "T2, recombinant human TL1A", "assay": "cell-based or functional assay"}, "[8]": {"biological_target": "T5, human IL-23", "assay": "cell-based or functional assay"}}}
{"binder": "B1", "values": [{"measurement": "koff", "setting": "[1]", "result": 0.0562, "unit": "s⁻¹"}, {"measurement": "kon", "setting": "[1]", "result": 52400, "unit": "M⁻¹ s⁻¹"}, {"measurement": "Kd", "setting": "[2]", "result": 0.34, "unit": "nM"}, {"measurement": "koff", "setting": "[2]", "result": "5.05e-05", "unit": "s⁻¹"}, {"measurement": "kon", "setting": "[2]", "result": 150000, "unit": "M⁻¹ s⁻¹"}, {"measurement": "Kd", "setting": "[3]", "result": 1.09, "unit": "nM"}, {"measurement": "koff", "setting": "[3]", "result": 0.000127, "unit": "s⁻¹"}, {"measurement": "kon", "setting": "[3]", "result": 117000, "unit": "M⁻¹ s⁻¹"}, {"measurement": "Kd", "setting": "[4]", "result": 288, "unit": "nM"}, {"measurement": "koff", "setting": "[4]", "result": 0.00761, "unit": "s⁻¹"}, {"measurement": "kon", "setting": "[4]", "result": 26700, "unit": "M⁻¹ s⁻¹"}, {"measurement": "koff", "setting": "[5]", "result": 0.00056, "unit": "s⁻¹"}, {"measurement": "kon", "setting": "[5]", "result": "2.28e+06", "unit": "M⁻¹ s⁻¹"}, {"measurement": "KIT-225 STAT4 assay IL-12, Bioactivity relative to p40-0003", "setting": "[6]", "result": 1.4, "unit": "fold"}, {"measurement": "KIT-225 STAT4 assay IL-12 IC50", "setting": "[6]", "result": 4.8, "unit": "nM"}, {"measurement": "NF-κB assay IC50 (TF-1 reporter cells)", "setting": "[7]", "result": 131, "unit": "pM"}, {"measurement": "NF-κB assay, Bioactivity relative to TL1A-0372", "setting": "[7]", "result": 1.3, "unit": "fold"}, {"measurement": "KIT-225 STAT3 assay IL-23, Bioactivity relative to p40-0003", "setting": "[8]", "result": 1.4, "unit": "fold"}, {"measurement": "KIT-225 STAT3 assay IL-23 IC50", "setting": "[8]", "result": 2.3, "unit": "nM"}]}
